Bounds are passed on as bounds.

For the experiment, the target named is SARS-CoV-2 Spike protein on pseudotyped virus (SARS-CoV-2 (Wuhan-Hu-1)) (UniProt P0DTC2). The experiment in a line: cell-based or functional assay.

Take S309 rIgG1-LS (antibody): the maximum neutralization, VSV pseudotype, 293T ACE2 cells worked out at 34%; the maximum neutralization, VSV pseudotype, A549-ACE2-TMPRSS2 clone 10 cells came out at 42%; the maximum neutralization, VSV pseudotype, Huh7 cells is 78%; the maximum neutralization, VSV pseudotype, MRC5-ACE2-TMPRSS2 cells worked out at 45%. The maximum neutralization, VSV pseudotype, Vero E6-TMPRSS2 cells was 96% and the maximum neutralization, VSV pseudotype, Vero E6 cells is above 99%.
The substance sotrovimab (antibody) displayed an EC50, neutralization of pseudotyped virus of 0.0241 µg/mL.

For the origin of these results see patent US20250263467A1.
